The target in test [1] is T1, CX3CR1 (Homo sapiens, UniProt P49238).
T1 construct: THP-1 cells (a human leukemia monocytic cell line) washed twice and suspended in serum-free RPMI 1640 media; endogenous in cells; host or cells: THP-1
T1 sequence (P49238 1-355): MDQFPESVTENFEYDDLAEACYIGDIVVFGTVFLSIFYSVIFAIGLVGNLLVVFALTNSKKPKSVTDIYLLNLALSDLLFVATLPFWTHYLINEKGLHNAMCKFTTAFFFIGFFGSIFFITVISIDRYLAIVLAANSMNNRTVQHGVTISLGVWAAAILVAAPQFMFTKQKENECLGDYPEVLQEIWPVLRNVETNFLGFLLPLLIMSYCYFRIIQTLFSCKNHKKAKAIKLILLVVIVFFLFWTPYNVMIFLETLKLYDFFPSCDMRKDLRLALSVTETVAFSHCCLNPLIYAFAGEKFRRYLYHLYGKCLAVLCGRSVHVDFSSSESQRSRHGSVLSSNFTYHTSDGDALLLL
Put plainly: Chemotaxis assay: RSV G modulation of CX3CR1, receptor-mediated chemotaxis of THP-1 cells (transwell). It is filed as cell-based. Conditions: for Chemotactic activity: RSV G (CCR) variants, chemotaxis assay of Example 4, duplicate assays, standard deviations in parentheses. The procedure:
An in vitro assay for RSV G modulation of CX3CR1 measures receptor mediated chemotaxis of human monocyte THP-1 cells {Tripp, R. A. et al. Nature Immunology (2001) 2:732-738}. […]
In more detail, the assay was performed using a transwell insert plate with an 8 µm pore size. Approximately 2 million log-phase THP-1 cells (a human leukemia monocytic cell line) washed twice and suspended in serum-free RPMI 1640 media were added to the upper chamber of the insert plate. Negative control was serum-free media alone to which serum-free media containing 25 nM mAb was added to the lower chamber. As a positive control, media containing 10% FBS was added to the lower chamber. RSV G[ecto] or RSV G[161-197] samples were added to the lower chamber at a final concentration of 5 nM in serum-free media. For samples with RSV G[161-197] and mAbs, RSV G[161-197] was pre-incubated with 5-molar excess mAb for 20 min at room temperature, and then added to serum-free media in the lower chamber, for a final concentration of 5 nM RSV G[161-197] and 25 nM mAb. For samples with anti-CX3CR1 antibody, 2 μL 1 mg/mL anti-CX3CR1 rabbit polyclonal antibody (ThermoFisher Scientific Cat #PA5-19910) was incubated with THP-1 cells for 30 minutes in the upper chamber before being placed into the well. The assembled plates were incubated in a CO2 incubator at 37° C. for 5 h. Cells migrated to the lower chamber were counted, and the chemotactic indices were determined by comparing the fold-increase in cell migration toward the chemoattractant to cell migration toward serum-free media alone. Experiments were performed in at least four biological replicates.
Determination of structures of RSV G CCR protein in complex with the high affinity antibodies 2D10 and 3D3 shown in FIG. 4A-B provide a roadmap to design RSV G immunogens to disable CX3CR1 binding without disrupting the ability to generate high-affinity mAb epitopes. Specifically, six highly conserved amino acids have been identified whose side-chains make no molecular contacts with mAbs 3D3 and 2D10, so they can be substituted without impacting generation of high affinity mAbs similar to these mAbs. These residues are therefore candidates for substitution in order to interfere with binding to CX3CR1. Generally, providing an alteration in charge (charge switch) and/or a change in size or shape resulting in a steric hinderance (steric clash) would be expected to result in a negative impact on such binding. […] Six representative mutants have been tested for their impact on CX3CR1 function as measured by the chemotaxis assay described in Example 4. Table 4 summarizes the results of duplicate assays (with standard deviations) using the standard one letter abbreviations for the amino acid at the indicated residue.

For test [2], the system named is RSV. Conditions: mice, day 5 post-inoculation, vs isotype control; cited from earlier work.
For test [3], the target named is RSV G protein (Human respiratory syncytial virus A, UniProt P03423). Particulars: read-out: affinity; mAb binding to RSV G protein; cited from earlier work.
Test [4] concerns RSV. Particulars: in vitro; cited from earlier work.

Where no end group is shown, it is not given here.

Chain of RSV G protein (P03423 whole entry): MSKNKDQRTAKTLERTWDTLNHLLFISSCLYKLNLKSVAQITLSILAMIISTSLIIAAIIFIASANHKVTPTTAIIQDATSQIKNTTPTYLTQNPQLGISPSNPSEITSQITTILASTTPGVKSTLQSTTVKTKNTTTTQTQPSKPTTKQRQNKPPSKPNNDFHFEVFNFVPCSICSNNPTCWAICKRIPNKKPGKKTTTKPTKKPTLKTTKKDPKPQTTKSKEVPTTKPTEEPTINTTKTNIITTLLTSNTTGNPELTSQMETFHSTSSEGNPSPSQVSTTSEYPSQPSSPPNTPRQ

On to “E166→K + K187 →E: RSV G (CCR) double variant, charge switch (NDFHFKVFNFVPCSICSNNPTCWAICERIPNKKPGKK; not fully specified (bridges); cysteine pairing not given here)”, for which the Chemotactic activity in test [1] is recorded as 1.8 (0.1).
On the same count and under the same terms, under “E166→K: RSV G (CCR) variant, E166 to K, charge switch (NDFHFKVFNFVPCSICSNNPTCWAICKRIPNKKPGKK; not fully specified (bridges); cysteine pairing not given here)” stands 1.6 (0.7); under “H164→Y: RSV G (CCR) variant, H164 to Y, steric clash (NDFYFEVFNFVPCSICSNNPTCWAICKRIPNKKPGKK; not fully specified (bridges); cysteine pairing not given here)”, 3.8 (0.4).
Same read-out and setting: under “K192→E + K193 →E: RSV G (CCR) double variant, charge switch (NDFHFEVFNFVPCSICSNNPTCWAICKRIPNEEPGKK; not fully specified (bridges); cysteine pairing not given here)” stands 2.5 (0.7); under “S177→R: RSV G (CCR) variant, substitution of arginine for serine at position 177 (NDFHFEVFNFVPCSICRNNPTCWAICKRIPNKKPGKK; not fully specified (bridges); cysteine pairing not given here)”, 0.9 (0.2).
Still for that read-out and setting: as for “S177→W: RSV G (CCR) variant, S177 to W, steric clash (NDFHFEVFNFVPCSICWNNPTCWAICKRIPNKKPGKK; not fully specified (bridges); cysteine pairing not given here)”, the figure is 1.2 (0.4).
In the case of “Synagis: humanized mouse mAb against RSV F protein”, the “effect on total BAL cells” value in test [2] was “did not reduce total BAL cells”.
Regarding “Wild type RSV G (CCR) (NDFHFEVFNFVPCSICSNNPTCWAICKRIPNKKPGKK; not fully specified (bridges); cysteine pairing not given here)”, in test [1], the Chemotactic activity is listed as 6.2 (0.7).

B1: 3D3: high affinity, broadly neutralizing human mAb binding RSV G protein CCR (antibody, V domains shown)
VH: EEQLVESGGGLVQPGRSLRLSCVGSGLRFEEHAMHWVRQAPGRGLEWVSGISWNSGSVGYADSVKGRFTTSRDNAKDILFLEMNTLRSEDTALYFCAIMVATTKNDFHYYKDVWGKGTTVTVSS
VL: QIVLTQSPATLSLSPGERATLSCRASQSVSNHLAWYQQKPGQAPRLLIYETSNRATGIPPRFSGSGSGTDFTLTISSLEPEDFAVYYCQQRNNWYTFGQGTKLEIK
Regarding B1, the “Blocking of RSV G[161-197]-induced chemotaxis by pre-incubation with mAb” value in test [1] (THP-1 cells, level comparable to anti-CX3CR1 polyclonal serum) is “blocked”. For the same molecule, the Kd in test [3] was 1.1 pM. Moreover, the viral neutralizing activity result in test [4] was “broad neutralizing activity”.

The values are drawn from US11773143B2, “Conformational epitopes in respiratory syncytial virus G protein central conserved region” (priority 2017, dated 2023).
